Assay results published in patent US20100183625A1, “Treatment of Mucositis with Kallikrein Inhibitors” (Dyax Corp., priority 2009, published 2010).
Residue numbers refer to the chain shown, from its start.

B1: X67-G01: single point mutation of M142-H08 (P2); HV-CDR3 GGLLLWCRELKSNYFDY (antibody, V domains shown)
VL: QDIQMTQSPSSLSAFVGDRVTITCRASQPIDNYLNWYHQKPGKAPKLLIYAASRLQSGVPSRLSGSGFGTDFTLTISSLQPEDFGNYYCQQSYTVPYTFGGGTKVEIR
VH: EVQLLESGGGLVQPGGSLRLSCAASGFTFSAYSMIWVRQAPGKGLEWVSYIRPSGGRTTYADSVKGRFTISRDNSKNTLYLQMNSLRAEDTAVYYCARGGLLLWCRELKSNYFDYWGQGTLVTVSSASTKGPSVFPLAPSSKS
B2: X66-E09: single point mutation of M142-H08 (P1); HV-CDR3 GGLLLWFAELKSNYFDY (antibody, V domains shown)
VL: B1 VL
VH: B1 VH with C105F, R106A
B3: X67-F08: single point mutation of M142-H08 (P2); HV-CDR3 GGLLLWYRELKSNYFDY (antibody, V domains shown)
VL: B1 VL
VH: B1 VH with C105Y
B4: X66-A07: single point mutation of M142-H08 (P1); HV-CDR3 GGLLLWFKELKSNYFDY (antibody, V domains shown)
VL: B1 VL
VH: B1 VH with C105F, R106K
B5: X67-E04: single point mutation of M142-H08 (P2); HV-CDR3 GGLLLWDRELKSNYFDY (antibody, V domains shown)
VL: B1 VL
VH: B1 VH with C105D
B6: X67-B03: single point mutation of M142-H08 (P2); HV-CDR3 GGLLLWSRELKSNYFDY (antibody, V domains shown)
VL: B1 VL
VH: B1 VH with C105S
B7: X67-G09: single point mutation of M142-H08 (P2); HV-CDR3 GGLLLWLRELKSNYFDY (antibody, V domains shown)
VL: B1 VL
VH: B1 VH with C105L
B8: X67-H01: single point mutation of M142-H08 (P2); HV-CDR3 GGLLLWWRELKSNYFDY (antibody, V domains shown)
VL: B1 VL
VH: B1 VH with C105W
B9: X66-C03: single point mutation of M142-H08 (P1); HV-CDR3 GGLLLWFLELKSNYFDY (antibody, V domains shown)
VL: B1 VL
VH: B1 VH with C105F, R106L
B10: X66-D03: single point mutation of M142-H08 (P1); HV-CDR3 GGLLLWFEELKSNYFDY (antibody, V domains shown)
VL: B1 VL
VH: B1 VH with C105F, R106E
B11: X67-C09: single point mutation of M142-H08 (P2); HV-CDR3 GGLLLWGRELKSNYFDY (antibody, V domains shown)
VL: B1 VL
VH: B1 VH with C105G
B12: X66-B05: single point mutation of M142-H08 (P1); HV-CDR3 GGLLLWFCELKSNYFDY (antibody, V domains shown)
VL: B1 VL
VH: B1 VH with C105F, R106C
B13: X66-H11: single point mutation of M142-H08 (P1); HV-CDR3 GGLLLWFTELKSNYFDY (antibody, V domains shown)
VL: B1 VL
VH: B1 VH with C105F, R106T
B14: X66-G05: single point mutation of M142-H08 (P1); HV-CDR3 GGLLLWFMELKSNYFDY (antibody, V domains shown)
VL: B1 VL
VH: B1 VH with C105F, R106M
B15: X67-B05: single point mutation of M142-H08 (P2); HV-CDR3 GGLLLWPRELKSNYFDY (antibody, V domains shown)
VL: B1 VL
VH: B1 VH with C105P
B16: X66-H02: single point mutation of M142-H08 (P1); HV-CDR3 GGLLLWFGELKSNYFDY (antibody, V domains shown)
VL: B1 VL
VH: B1 VH with C105F, R106G
B17: X66-C02: single point mutation of M142-H08 (P1); HV-CDR3 GGLLLWFVELKSNYFDY (antibody, V domains shown)
VL: B1 VL
VH: B1 VH with C105F, R106V
B18: X67-H04: single point mutation of M142-H08 (P2); HV-CDR3 GGLLLWERELKSNYFDY (antibody, V domains shown)
VL: B1 VL
VH: B1 VH with C105E
B19: X66-F09: single point mutation of M142-H08 (P1); HV-CDR3 GGLLLWFWELKSNYFDY (antibody, V domains shown)
VL: B1 VL
VH: B1 VH with C105F, R106W
B20: X66-F10: single point mutation of M142-H08 (P1); HV-CDR3 GGLLLWFPELKSNYFDY (antibody, V domains shown)
VL: B1 VL
VH: B1 VH with C105F, R106P
B21: X67-G05: single point mutation of M142-H08 (P2); HV-CDR3 GGLLLWRRELKSNYFDY (antibody, V domains shown)
VL: B1 VL
VH: B1 VH with C105R
B22: X66-H04: single point mutation of M142-H08 (P1); HV-CDR3 GGLLLWFFELKSNYFDY (antibody, V domains shown)
VL: B1 VL
VH: B1 VH with C105F, R106F
B23: X66-C11: single point mutation of M142-H08 (P1); HV-CDR3 GGLLLWFHELKSNYFDY (antibody, V domains shown)
VL: B1 VL
VH: B1 VH with C105F, R106H
B24: X66-F01: single point mutation of M142-H08 (P1); HV-CDR3 GGLLLWFSELKSNYFDY (antibody, V domains shown)
VL: B1 VL
VH: B1 VH with C105F, R106S
B25: X66-E04: single point mutation of M142-H08 (P1); HV-CDR3 GGLLLWFQELKSNYFDY (antibody, V domains shown)
VL: B1 VL
VH: B1 VH with C105F, R106Q
B26: X67-B04: single point mutation of M142-H08 (P2); HV-CDR3 GGLLLWKRELKSNYFDY (antibody, V domains shown)
VL: B1 VL
VH: B1 VH with C105K
B27: X67-F10: single point mutation of M142-H08 (P2); HV-CDR3 GGLLLWTRELKSNYFDY (antibody, V domains shown)
VL: B1 VL
VH: B1 VH with C105T

molecular target: T1, pKal (Homo sapiens, UniProt P03952); experiment: Fab fragments (small scale) tested for inhibition against human pKal in an in vitro protease cleavage assay; assay type: biochemical; conditions: Table 9
T1 construct: two disulfide linked polypeptides; a heavy chain of approximately 52 kDa and a catalytic domain of approximately 34 kDa; host or cells: human plasma
T1 sequence (P03952 391-638 limits assumed): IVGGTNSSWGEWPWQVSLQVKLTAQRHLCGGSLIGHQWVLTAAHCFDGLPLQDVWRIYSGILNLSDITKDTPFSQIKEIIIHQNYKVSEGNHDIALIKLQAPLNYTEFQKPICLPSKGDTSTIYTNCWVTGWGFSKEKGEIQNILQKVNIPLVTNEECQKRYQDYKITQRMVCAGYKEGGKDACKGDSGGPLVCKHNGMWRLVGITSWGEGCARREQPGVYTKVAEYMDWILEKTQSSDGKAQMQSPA
T1 sequence (P03952 20-390 partner limits assumed): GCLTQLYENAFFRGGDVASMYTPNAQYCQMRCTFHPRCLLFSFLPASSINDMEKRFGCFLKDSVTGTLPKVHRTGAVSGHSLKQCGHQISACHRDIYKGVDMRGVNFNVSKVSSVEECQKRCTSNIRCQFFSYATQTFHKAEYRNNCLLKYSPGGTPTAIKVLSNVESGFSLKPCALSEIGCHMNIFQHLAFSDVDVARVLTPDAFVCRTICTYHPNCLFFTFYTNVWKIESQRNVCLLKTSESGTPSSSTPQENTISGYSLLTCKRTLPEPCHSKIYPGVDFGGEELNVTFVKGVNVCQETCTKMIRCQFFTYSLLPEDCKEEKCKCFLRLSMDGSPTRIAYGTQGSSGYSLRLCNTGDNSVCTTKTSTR
Description: By DNA sequencing, we recovered 61 of the possible 80 antibodies (Table 9). These antibodies were produced as Fab fragments in small scale (˜20 μg) and tested for inhibition against human pKal in an in vitro protease cleavage assay using Pro-Phe-Arg-aminomethylcoumarin as the synthetic peptide substrate. […] Five antibodies were then expressed in 293T cells and purified by protein A sepharose chromatography. The antibodies were analyzed by SDS-PAGE to determine which of the inhibitory mutants are not cleaved by the host cell protease(s) (data not shown).

Molecule	Inhibit as a Fab?
B1	No
B2	No
B3	Yes
B4	No
B5	Yes
B6	Yes
B7	Yes
B8	Yes
B9	No
B10	No
B11	Yes
B12	No
B13	No
B14	No
B15	No
B16	No
B17	No
B18	Yes
B19	No
B20	No
B21	Yes
B22	No
B23	No
B24	No
B25	No
B26	Yes
B27	Yes
